This is an account of results in patent publication US20230118302 (published 2023).

Changes are numbered by the printed parent chain. Like-named read-outs stand apart in the source and are kept apart here.

Test [1] addresses T1, HER2 ECD (human, UniProt P04626). The experiment in a line: SPR. A general note: SPR reads the build-up and loss of mass on a sensor chip optically.
The target of test [2] is T1, HER2 ECD. In words: SPR. The source holds these as a separate data set.
For test [3], the target named is T2, HER2 on cells (human, UniProt P04626). The experiment in a line: FACS, MCF7.
The target in test [4] is T2, HER2 on cells. In words: FACS, MCF7. The source holds these as a separate data set.
Test [5] has as its target T2, HER2 on cells. The experiment in a line: FACS, WI-38.
In test [6] the target is CD16a V158 (human, UniProt P08637). In words: SPR.
CD16a V158, sequence (P08637 17-208 F176V): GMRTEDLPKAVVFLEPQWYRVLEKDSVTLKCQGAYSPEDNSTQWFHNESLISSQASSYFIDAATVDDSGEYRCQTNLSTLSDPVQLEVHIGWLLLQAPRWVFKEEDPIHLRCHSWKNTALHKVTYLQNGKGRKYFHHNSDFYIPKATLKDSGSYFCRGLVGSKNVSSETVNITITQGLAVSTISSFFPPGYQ

B1: v10014 (antibody, V domains shown)
VH: EVQLVESGGGLVQPGGSLRLSCAASGFTFADYTMDWVRQAPGKGLEWVADVNPNSGGSIYNQRFKGRFTLSVDRSKNTLYLQMNSLRAEDTAVYYCARNLGPSFYFDYWGQGTLVTVSS
VL: DIQMTQSPSSLSASVGDRVTITCKASQDVSIGVAWYQQKPGKAPKLLIYSASYRYTGVPSRFSGSGSGTDFTLTISSLQPEDFATYYCQQYYIYPATFGQGTKVEIK
In the case of B1, the Kd (usually the free concentration of one partner at which half of the binding sites on the other are occupied at equilibrium, for simple one-to-one binding) was found to be 2 nM in test [1] and 2.1 nM in test [2].

B2: v10000 (antibody)
chain 1: EVQLVESGGGLVQPGGSLRLSCAASGFTFADYTMDWVRQAPGKGLEWVGDVNPNSGGSIYNQRFKGRFTFSVDRSKNTLYLQMNSLRAEDTAVYYCARNLGPSFYFDYWGQGTLVTVSSASTKGPSVFPLAPSSKSTSGGTAALGCLVKDYFPEPVTVSWNSGALTSGVHTFPAVLQSSGLYSLSSVVTVPSSSLGTQTYICNVNHKPSNTKVDKKVEPKSCDKTHTCPPCPAPELLGGPSVFLFPPKPKDTLMISRTPEVTCVVVDVSHEDPEVKFNWYVDGVEVHNAKTKPREEQYNSTYRVVSVLTVLHQDWLNGKEYKCKVSNKALPAPIEKTISKAKGQPREPQVYVYPPSRDELTKNQVSLTCLVKGFYPSDIAVEWESNGQPENNYKTTPPVLDSDGSFALVSKLTVDKSRWQQGNVFSCSVMHEALHNHYTQKSLSLSPG
chain 2: not shown
chain 3: not shown
Take B2: the figures for the Kd in test [3], in test [4] and in test [5] were 6.8 nM, 3.7 nM and 8.4 nM, respectively.

B3: v7148 (antibody)
chain 1: B2 chain 1 with A30T, G49A, F70L
chain 2: not shown
chain 3: not shown
modifications: v7091 conjugated to SMCC-DM1
With B3, binding in test [6] was put at a Kd of 120 nM.

B4: v7091 (antibody)
chain 1: B2 chain 1 with A30T, G49A, F70L
chain 2: not shown
chain 3: not shown
In the case of B4, in test [6], binding was characterised by a dissociation constant (Kd) of 120 nM.
